Drawing on patent publication US20080194611A1, “Modulation of Cell Barrier Dysfunction” (priority 2005, published 2008), this text covers percent of bacterial cells that bound IFN-γ for one substance.

The assay addresses membrane protein on P. aeruginosa (whole cells, membrane fractions, solubilized membrane proteins of (Pseudomonas aeruginosa)).

recombinant human IFN-γ (rH IFN-γ), sequence (P01579 24-166 limits assumed): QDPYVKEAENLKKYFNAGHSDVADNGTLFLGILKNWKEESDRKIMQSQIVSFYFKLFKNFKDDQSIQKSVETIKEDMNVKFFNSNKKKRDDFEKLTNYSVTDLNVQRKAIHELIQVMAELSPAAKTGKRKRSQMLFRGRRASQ

The substance “recombinant human IFN-γ (rH IFN-γ) (from UniProt P01579 24-166) (ligand)” displayed a percent of bacterial cells that bound IFN-γ of 73%.
